In article PMC3475010 (BMC Structural Biology, 2012):
Like-named read-outs stand apart in the source and are kept apart here.

Assays:
[1] = biological target: T1, StAckA (Salmonella typhimurium acetate kinase, AckA) (Salmonella enterica, UniProt P63411); experiment: kinetic assay after […] min preincubation at […] °C with inhibitor; assay type: biochemical
T1 construct: expressed in E. coli; Ni-NTA and gel filtration; homodimer
T1 sequence (P63411 1-400): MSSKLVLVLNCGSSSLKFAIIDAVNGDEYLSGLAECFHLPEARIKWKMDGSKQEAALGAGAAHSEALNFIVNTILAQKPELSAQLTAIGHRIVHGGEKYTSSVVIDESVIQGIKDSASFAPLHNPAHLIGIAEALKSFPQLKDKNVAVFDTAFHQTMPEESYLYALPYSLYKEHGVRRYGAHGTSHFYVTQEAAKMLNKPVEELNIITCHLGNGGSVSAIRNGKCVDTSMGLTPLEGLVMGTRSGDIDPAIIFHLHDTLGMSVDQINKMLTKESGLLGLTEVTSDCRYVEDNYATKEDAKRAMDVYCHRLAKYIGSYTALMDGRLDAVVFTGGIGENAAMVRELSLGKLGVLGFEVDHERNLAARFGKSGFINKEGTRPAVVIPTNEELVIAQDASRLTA

[2] = biological target: T1, StAckA (Salmonella typhimurium acetate kinase, AckA); experiment: inhibition of acetate utilization, kinetic assay; assay type: biochemical; details: equimolar to acetate; not a substrate
[3] = biological target: T1, StAckA (Salmonella typhimurium acetate kinase, AckA); experiment: CD thermal denaturation; assay type: binding; details: ligand close to its Km, pH 7.5; unliganded reference Tm 45 °C
[4] = biological target: T1, StAckA (Salmonella typhimurium acetate kinase, AckA); experiment: initial velocity assay, acetyl-phosphate synthesis direction; assay type: biochemical; details: co-substrate acetate, Mg2+, pH 7.5, 37 °C
From the text: (§1) initial velocity assay, acetyl-phosphate synthesis direction on StAckA (Salmonella typhimurium acetate kinase, AckA)

[5] = biological target: T1, StAckA (Salmonella typhimurium acetate kinase, AckA); experiment: CD thermal denaturation; assay type: binding; details: read-out: dTm
[6] = biological target: T1, StAckA (Salmonella typhimurium acetate kinase, AckA); experiment: X-ray crystal structure, […] Å; assay type: binding; details: dimeric interface pocket, one citrate per dimer; citrate from crystallization condition
[7] = substrate: CCC(=O)O; experiment: purified protein; assay type: biochemical, Salmonella enterica; details: ATP, Mg2+, pH 7.5, 37 °C
[8] = substrate: CC(=O)OP(=O)(O)O; experiment: purified protein; assay type: biochemical, Salmonella enterica; details: reverse reaction (ATP synthesis), ADP, Mg2+, pH 7.5, 37 °C
[9] = substrate: Nc1ncnc2c1ncn2[C@@H]1O[C@H](COP(=O)(O)OP(=O)(O)O)[C@@H](O)[C@H]1O; experiment: purified protein; assay type: biochemical, Salmonella enterica; details: reverse reaction (ATP synthesis), acetyl-phosphate, Mg2+, pH 7.5, 37 °C
[10] = substrate: Nc1ncnc2c1ncn2[C@@H]1O[C@H](COP(=O)(O)OP(=O)(O)OP(=O)(O)O)[C@@H](O)[C@H]1O; experiment: purified protein; assay type: biochemical, Salmonella enterica; details: co-substrate acetate, Mg2+, pH 7.5, 37 °C
[11] = substrate: Nc1nc2c(ncn2[C@@H]2O[C@H](COP(=O)(O)OP(=O)(O)OP(=O)(O)O)[C@@H](O)[C@H]2O)c(=O)[nH]1; experiment: initial velocity assay, acetyl-phosphate synthesis direction; assay type: biochemical, Salmonella enterica; details: co-substrate acetate, Mg2+, pH 7.5, 37 °C
From the text: as §1

[12] = substrate: O=c1ccn([C@@H]2O[C@H](COP(=O)(O)OP(=O)(O)OP(=O)(O)O)[C@@H](O)[C@H]2O)c(=O)[nH]1; experiment: as above; assay type: biochemical, Salmonella enterica; details: co-substrate acetate, Mg2+, pH 7.5, 37 °C
From the text: as §1

[13] = substrate: CC(=O)O; experiment: purified protein; details: ATP, Mg2+, pH 7.5, 37 °C

In the case of `NCCC(N)C(=O)O` (stereo not drawn) [2,4-DAB], the IC50 ([1]; read-out: kcat/Km(s^-1 mM^-1), saturating cognate ligand, 37 °C) is reported as 5 ± 2.2 mM.

`O=C(O)CCC(=O)O` [Succinate] gave an IC50 ([1]; read-out: Vmax(μmol min^-1 mg^-1)) of 75 ± 20 mM.

For `CCCC(=O)O` [butyrate], the “% reduction of rate at equimolar concentration” value [2] was 40%.

`O=C(O)CCC(=O)C(=O)O` [α-KG] showed an IC50 ([1]; read-out: kcat(s^-1)) of 7 ± 1.8 mM.

With `CCC(=O)C(=O)O` [2-KB] the IC50 ([1]; read-out: [I]) was 3 ± 1.3 mM.

With `Nc1ncnc2c1ncn2[C@@H]1O[C@H](COP(=O)(O)OP(=O)(O)O)[C@@H](O)[C@H]1O` [ADP] the Tm [3] was 52 °C.

Molecule `CC(=O)OP(=O)(O)O` [Acetyl-phosphate] has a Tm [3] of 54 °C.

In the case of `Nc1ccn([C@@H]2O[C@H](COP(=O)(O)OP(=O)(O)OP(=O)(O)O)[C@@H](O)[C@H]2O)c(=O)n1` [CTP], the “kcat/Km(s^-1 mM^-1)” value [4] is reported as 88 ± 42 µM.

In the case of `O=C(O)CC(O)(CC(=O)O)C(=O)O` [Citrate], the ΔTm at 10000 µM [5] is reported as 10 °C, the IC50 ([1]; read-out: Km) is reported as 63 ± 15 mM and the “X-ray crystal structure, 1.90 Å” value [6] is reported as “only one citrate binds at the dimeric interface resulting in an asymmetric dimer”.

Molecule `O=C(O)C[C@H](O)C(=O)O` [Malate] has an IC50 ([1]; read-out: [I]) of 1 ± 0.5 mM.

B1: StAckA (Salmonella typhimurium acetate kinase, AckA) (Salmonella enterica subsp. enterica serovar Typhimurium str. LT2) (protein)
chain: MSSKLVLVLNCGSSSLKFAIIDAVNGDEYLSGLAECFHLPEARIKWKMDGSKQEAALGAGAAHSEALNFIVNTILAQKPELSAQLTAIGHRIVHGGEKYTSSVVIDESVIQGIKDSASFAPLHNPAHLIGIAEALKSFPQLKDKNVAVFDTAFHQTMPEESYLYALPYSLYKEHGVRRYGAHGTSHFYVTQEAAKMLNKPVEELNIITCHLGNGGSVSAIRNGKCVDTSMGLTPLEGLVMGTRSGDIDPAIIFHLHDTLGMSVDQINKMLTKESGLLGLTEVTSDCRYVEDNYATKEDAKRAMDVYCHRLAKYIGSYTALMDGRLDAVVFTGGIGENAAMVRELSLGKLGVLGFEVDHERNLAARFGKSGFINKEGTRPAVVIPTNEELVIAQDASRLTA
notes: expressed in E. coli; Ni-NTA and gel filtration; homodimer
B1 was tested, and the Km [7] was 11200 ± 100 µM, the Vmax [7] was 1250 µmol/min/mg and the kcat [7] was 940 ± 85 s⁻¹. For the same molecule, the kcat/Km [7] was 85000 ± 10000 M⁻¹ s⁻¹, the Km [8] was 280 ± 40 µM and the Vmax [8] was 2350 µmol/min/mg. For the same molecule, the kcat [8] was 1760 ± 25 s⁻¹, the kcat/Km [8] was 6.3e+06 ± 45000 M⁻¹ s⁻¹ and the Km [9] was 100 ± 3 µM. It also gave a Vmax [9] of 2340 µmol/min/mg, a kcat [9] of 1750 ± 65 s⁻¹ and a kcat/Km [9] of 1.7645e+07 ± 10000 M⁻¹ s⁻¹. It also gave a Km [10] of 70 ± 5 µM, a Vmax [10] of 1550 µmol/min/mg and a kcat [10] of 1170 ± 85 s⁻¹. It also gave a kcat/Km [10] of 1.686e+07 ± 50000 M⁻¹ s⁻¹, a Km [11] of 78 ± 27 µM and a Km [12] of 96 ± 58 µM. For the same molecule, the Km [13] was 1200 ± 100 µM, the Vmax [13] was 1560 µmol/min/mg and the kcat/Km [13] was 985000 M⁻¹ s⁻¹.
